Reference: IntAct's records for PubMed 15319482

B1: Protein BRASSINOSTEROID … 1 (Arabidopsis thaliana (Mouse-ear cress)), O22476 (parent)
chain: MKTFSSFFLSVTTLFFFSFFSLSFQASPSQSLYREIHQLISFKDVLPDKNLLPDWSSNKNPCTFDGVTCRDDKVTSIDLSSKPLNVGFSAVSSSLLSLTGLESLFLSNSHINGSVSGFKCSASLTSLDLSRNSLSGPVTTLTSLGSCSGLKFLNVSSNTLDFPGKVSGGLKLNSLEVLDLSANSISGANVVGWVLSDGCGELKHLAISGNKISGDVDVSRCVNLEFLDVSSNNFSTGIPFLGDCSALQHLDISGNKLSGDFSRAISTCTELKLLNISSNQFVGPIPPLPLKSLQYLSLAENKFTGEIPDFLSGACDTLTGLDLSGNHFYGAVPPFFGSCSLLESLALSSNNFSGELPMDTLLKMRGLKVLDLSFNEFSGELPESLTNLSASLLTLDLSSNNFSGPILPNLCQNPKNTLQELYLQNNGFTGKIPPTLSNCSELVSLHLSFNYLSGTIPSSLGSLSKLRDLKLWLNMLEGEIPQELMYVKTLETLILDFNDLTGEIPSGLSNCTNLNWISLSNNRLTGEIPKWIGRLENLAILKLSNNSFSGNIPAELGDCRSLIWLDLNTNLFNGTIPAAMFKQSGKIAANFIAGKRYVYIKNDGMKKECHGAGNLLEFQGIRSEQLNRLSTRNPCNITSRVYGGHTSPTFDNNGSMMFLDMSYNMLSGYIPKEIGSMPYLFILNLGHNDISGSIPDEVGDLRGLNILDLSSNKLDGRIPQAMSALTMLTEIDLSNNNLSGPIPEMGQFETFPPAKFLNNPGLCGYPLPRCDPSNADGYAHHQRSHGRRPASLAGSVAMGLLFSFVCIFGLILVGREMRKRRRKKEAELEMYAEGHGNSGDRTANNTNWKLTGVKEALSINLAAFEKPLRKLTFADLLQATNGFHNDSLIGSGGFGDVYKAILKDGSAVAIKKLIHVSGQGDREFMAEMETIGKIKHRNLVPLLGYCKVGDERLLVYEFMKYGSLEDVLHDPKKAGVKLNWSTRRKIAIGSARGLAFLHHNCSPHIIHRDMKSSNVLLDENLEARVSDFGMARLMSAMDTHLSVSTLAGTPGYVPPEYYQSFRCSTKGDVYSYGVVLLELLTGKRPTDSPDFGDNNLVGWVKQHAKLRISDVFDPELMKEDPALEIELLQHLKVAVACLDDRAWRRPTMVQVMAMFKEIQAGSGIDSQSTIRSIEDGGFSTIEMVDMSIKEVPEGKL
partner: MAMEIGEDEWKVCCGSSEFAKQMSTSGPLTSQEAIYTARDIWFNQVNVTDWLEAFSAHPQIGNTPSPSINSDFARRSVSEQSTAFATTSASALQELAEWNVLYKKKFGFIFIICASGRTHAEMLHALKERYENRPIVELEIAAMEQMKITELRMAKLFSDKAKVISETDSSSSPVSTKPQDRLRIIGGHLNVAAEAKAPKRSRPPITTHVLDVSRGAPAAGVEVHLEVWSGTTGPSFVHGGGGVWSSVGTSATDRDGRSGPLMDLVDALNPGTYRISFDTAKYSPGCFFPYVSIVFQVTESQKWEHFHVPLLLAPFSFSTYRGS

Columns and labels:
tthl_arath TTL, Q9LVM5 [1] = variants of: B1; conditions: with tthl_arath TTL
tthl_arath TTL, Q9LVM5 [2] = variants of: B1; conditions: with tthl_arath TTL; remark: listed apart in the source

Row | Variant | effect of a mutation on the interaction (tthl_arath TTL, Q9LVM5 [1]) | effect of a mutation on the interaction (tthl_arath TTL, Q9LVM5 [2])
1 | G1048D | decreasing interaction | disrupting interaction
2 | E1078K | decreasing interaction | disrupting interaction
3 | A1031T | – | disrupting interaction
